# Source: patent US10835618
# What was measured:
# [1] = biological target: Polyvalent sialyl Le^a-HSA (Isosep AB); assay: ELISA on plates coated with sialyl-Lewis^a-HSA, OD 450nm
# [2] = biological target: Polyvalent sialyl Le^a-HSA (Isosep AB); assay: ELISA on coated sialyl-Lewis^a-HSA
# [3] = biological target: Polyvalent sialyl Le^a-HSA (Isosep AB); assay: SPR, real-time sialyl Le^a-HSA binding, antigen on CM5 chip
# [4] = biological target: Polyvalent sialyl Le^a-HSA (Isosep AB); assay: SPR (Biacore X or 3000), sialyl Le^a-HSA coupled to CM5 chip; major population
# [5] = biological target: Polyvalent sialyl Le^a-HSA (Isosep AB); assay: SPR (Biacore X or 3000), sialyl Le^a-HSA coupled to CM5 chip; minor population
# [6] = biological target: Polyvalent sialyl Le^a-HSA (Isosep AB); assay: SPR (Biacore X or 3000), sialyl Le^a-HSA coupled to CM5 chip; major population; major population (80%), two-population fit
# [7] = biological target: Polyvalent sialyl Le^a-HSA (Isosep AB); assay: SPR (Biacore X or 3000), sialyl Le^a-HSA coupled to CM5 chip; minor population; minor population (20%), two-population fit
# FG129 mAb (mouse FG129/29 IgG1 kappa) (antibody), sequence (heavy): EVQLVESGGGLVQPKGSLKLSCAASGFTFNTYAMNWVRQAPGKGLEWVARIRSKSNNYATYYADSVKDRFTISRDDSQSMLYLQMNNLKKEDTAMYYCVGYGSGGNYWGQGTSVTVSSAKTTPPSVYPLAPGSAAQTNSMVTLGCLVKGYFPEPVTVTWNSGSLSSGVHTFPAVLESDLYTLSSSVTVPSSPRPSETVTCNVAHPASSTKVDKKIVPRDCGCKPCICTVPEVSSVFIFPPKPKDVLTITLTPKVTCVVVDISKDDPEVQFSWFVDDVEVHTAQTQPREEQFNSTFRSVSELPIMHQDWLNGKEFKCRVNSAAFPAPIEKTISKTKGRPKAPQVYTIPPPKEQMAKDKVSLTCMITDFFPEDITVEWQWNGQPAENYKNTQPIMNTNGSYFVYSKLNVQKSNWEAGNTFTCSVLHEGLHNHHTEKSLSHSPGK
# FG129 mAb (mouse FG129/29 IgG1 kappa) (antibody), sequence (light): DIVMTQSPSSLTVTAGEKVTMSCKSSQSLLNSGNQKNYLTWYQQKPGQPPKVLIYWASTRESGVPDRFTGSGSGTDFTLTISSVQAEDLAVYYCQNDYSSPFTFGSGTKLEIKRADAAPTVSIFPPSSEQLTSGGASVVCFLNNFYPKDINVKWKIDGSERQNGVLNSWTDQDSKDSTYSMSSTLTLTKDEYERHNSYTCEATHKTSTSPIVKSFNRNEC
EC50 [1] [pM],EC50 [2] [pM],Kd [3] [pM],koff [3] [s⁻¹],kon [3] [M⁻¹ s⁻¹],koff [4] [s⁻¹],kon [4] [M⁻¹ s⁻¹],Kd [5] [pM],kon [5] [M⁻¹ s⁻¹],Kd [6] [pM],koff [7] [s⁻¹],Substance
186,,,,,,,,,,,CA19.9 (anti-sialyl lewis a Mab) (antibody)
287,100,200,0.00011,620000,0.00257,19700,0.14,88500,130000,1.35e-08,FG129 mAb (mouse FG129/29 IgG1 kappa) (antibody)
